Measurements reported in patent US5942405A, “Therapeutic and screening methods using C3a receptor and C3a” (priority 1997, dated 1999).

T1: C3a Receptor (Homo sapiens, UniProt Q16581)
T1 sequence (Q16581 1-482 F151C): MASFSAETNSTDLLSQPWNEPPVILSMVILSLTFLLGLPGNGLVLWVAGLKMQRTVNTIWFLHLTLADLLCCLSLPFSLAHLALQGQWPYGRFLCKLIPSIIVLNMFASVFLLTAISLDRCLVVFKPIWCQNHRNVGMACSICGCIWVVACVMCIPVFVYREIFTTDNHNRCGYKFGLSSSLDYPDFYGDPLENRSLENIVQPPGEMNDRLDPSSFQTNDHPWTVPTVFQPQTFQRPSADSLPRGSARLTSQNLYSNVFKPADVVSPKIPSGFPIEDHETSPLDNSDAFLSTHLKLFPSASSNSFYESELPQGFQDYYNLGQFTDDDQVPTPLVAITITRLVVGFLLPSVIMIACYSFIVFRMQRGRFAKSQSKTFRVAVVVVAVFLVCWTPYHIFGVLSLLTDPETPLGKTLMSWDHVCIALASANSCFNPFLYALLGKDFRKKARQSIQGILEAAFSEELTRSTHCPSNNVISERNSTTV


Key:
C3a Receptor [1] = biological target: T1, C3a Receptor; assay: Calcium mobilization by Fura 2 loaded RBL-2H3 cells stably expressing C3a Receptor; assay type: cell-based; design: cDNA encoding a complete orphan GPCR of 482 amino acids; expressed in transfected cells; settings: for EC50: Fura 2 loaded RBL-2H3 cells expressing C3a Receptor, read-out: EC50, mobilization of intracellular Ca2+; for mobilization of intracellular Ca2+ (response in words): RBL-2H3 cells expressing C3a Receptor, Fig. 4: rC5a 100 nM, C3a analogue peptide 1 uM
Method: (A) Electrophysiological response of Xenopus oocytes injected with cRNA for C3a Receptor (10 ng), total U937 RNA (25 ng), or a mixture of C3a Receptor (10 ng) and U937 RNA (25 ng) to 10 nM rC5a, 10 nM C3a analogue peptide, 10 nM platelet activating factor (PAF), 10 nM fMetLeuPhe. Inset, represents typical response of oocytes co-injected with C3a Receptor cRNA+U937 RNA to 10 nM C3a. (B) Electrophysiological response of oocytes injected with C5a-R cRNA (10 ng), U937 RNA (25 ng) or a mixture of C5a-R and U937 RNA, to 10 nM rC5a or 10 nM C3a analogue peptide. […] Calcium mobilization by Fura 2 loaded cells expressing C5a receptor (FIGS. 4A & 4C) or C3a Receptor (FIGS. 4B & 4D) in response to rC5a (10 nM, FIG. 4A or 100 nM, FIG. 4B) or C3a analogue peptide (1 uM, FIGS. 4C & 4D).
(§1) To prepare C3a Receptor for expression in mammalian cells, a 1.6 kb cDNA fragment was obtained by PCR amplification that encompassed the entire C3a Receptor open reading frame. This fragment was subcloned into KpnI/Hind III sites of the mammalian expression vector, pCDN (Aiyar, N., et al (1994) Mol. Cell. Bio. 131, 75-86). Oligonucleotide primers used for PCR amplification were 5'-GA AGT GGT ACC ATG GCG TC-3' (SEQ ID NO:4) and 5'-GC TCCAAGCTTTCACACAGTTG-3' (SEQ ID NO:5) (the translation start and stop codons are underlined). RBL-2H3 cells were electroporated with either C3a Receptor or C5a-R in the pCDN mamalian expression vector (Aiyar, N., et al (1994) Mol. Cell. Bio. 131, 75-86), exactly as described (DeMartino, J. A., et al (1994) J. Biol Chem. 269, 14446-14450). Individual G418 resistant (400 μg/ml) colonies were isolated and expanded. Clonal cell lines expressing either C3a Receptor or C5a-R were chosen for further functional and binding studies.
RBL-2H3 cells (Siraganian, R. P., et al (1982) Fed. Proc. 41, 30-34), a rat basophil cell line, when transfected with an expression plasmid encoding the C5a-R express receptors that are functionally active (DeMartino, J. A., et al (1994) J. Biol. Chem. 269, 14446-14450). RBL-2H3 cells were stably transfected with mammalian expression plasmids encoding the C5a-R or C3a Receptor and Fura 2 loaded cells were tested for a C5a or C3a induced mobilization of intracellular Ca^2+.
Fura 2 loaded clonal cell lines expressing C5a-R or C3a Receptor were assayed for functional response, Ca^2+ mobilization, as described (Saussy, D. L. Jr., et al (1989) J. Biol. Chem. 264, 19845-19855).

C3a Receptor [2] = biological target: T1, C3a Receptor; assay: Whole cell 125I-C3a binding to C3a Receptor expressing RBL-2H3 cells (competition and saturation); design: cDNA encoding a complete orphan GPCR of 482 amino acids; expressed in transfected cells; settings: for IC50: RBL-2H3 cells expressing C3a Receptor, 1×10^6 cells; for IC50 / competition of 125I-C3a binding / specific binding (in words): 2.3 nM labelled C3a; for competition of 125I-C3a binding / specific binding (in words): cells expressing C3a Receptor
Source text: as §1
The C3a carboxy-terminal analogue synthetic peptide, [WWGKKYRASKLGLAR (SEQ ID NO:3)] was obtained from Bachem Bioscience, Inc., King of Prussia, Pa. C3a was purchased from Advanced Research Technologies, San Diego, Calif. Human rC5a was expressed in E. coli and purified to homogeneity. Other agonists were obtained from Sigma, St. Louis, MO. C3a was radioiodinated using IODOBEADS (Pierce, Rockford Ill.) to a specific activity of 100 Cilmmol. Increasing concentrations of cold competitor were added to 1×10^6 cells in the presence of ^125 -C3a (2.3 nM), and the assay was performed essentially as described (Klos, A., et al (1992) Biochemistry 31, 11274-11282).
C3a was radioiodinated and used in whole cell binding assays to further characterize C3a Receptor. […] Curiously, HEK 293 cells stably expressing C3a Receptor mRNA by Northern Blot, neither bound nor responded to C3a (data not shown).

Molecule | EC50 (C3a Receptor [1]) [nM] | mobilization of intracellular Ca2+ (response in words) (C3a Receptor [1]) | mobilization of intracellular Ca2+ (response in words) (C3a Receptor [1]; listed as native human C3a) | IC50 (C3a Receptor [2]) [nM] | competition of 125I-C3a binding / specific binding (in words) (C3a Receptor [2]) | Bmax (C3a Receptor [2]; saturation binding and Scatchard analysis, data not shown) | Kd (C3a Receptor [2]; saturation binding and Scatchard analysis, single class of sites, data not shown) [nM] | mobilization of intracellular Ca2+ (response in words) (C3a Receptor [1]; listed as C3a synthetic peptide)
C3a: C3a was purchased from Advanced Research Technologies, San Diego; anaphylatoxin; radioiodinated for binding | 0.3 | bind and respond | responded | 3 | specifically bind | 32,000 receptors per cell | 0.3 | 
WWGKKYRASKLGLAR [C3a analogue synthetic peptide, reference compound] | 3.9 | respond |  | 155 | specifically bind |  |  | robust response
rC5a: Human rC5a was expressed in E. coli and purified to homogeneity (protein, UniProt P01031 678-751, looked up, C5a anaphylatoxin recombinant, E. coli, Human rC5a was expressed in E. coli and purified to homogeneity) C5a anaphylatoxin: TLQKKIEEIAAKYKHSVVKKCCYDGACVNNDETCEQRAARISLGPRCIKAFTECCVVASQLRANISHKDMQLGR |  | not C3a Receptor expressing cells responded |  |  | not |  |  | 
